Experimental data reported in article PMC4652764, “The La-related protein 1-specific domain repurposes HEAT-like repeats to directly bind a 5′TOP sequence”.

Key:
[1] = target: T1, LARP1 DM15 region (human, UniProt Q6PKG0 873-1023); assay: EMSA; tRNA and BSA competitors; ~500 nM when corrected for active protein; EMSA: 20 mM Tris-HCl pH 8, 150 mM NaCl, 10% glycerol, 1 mM DTT, 0.5 ug tRNA, 1 ug BSA, <2 nM RNA, 30 min on ice, native 0.5x TBE gel at 4 C; conditions: protein: recombinant; tags: His6-MBP removed by TEV; glycine linker remnant; label: 5'-32P (EMSA, probing)
[2] = target: T1, LARP1 DM15 region; assay: EMSA; no specific binding; EMSA: 20 mM Tris-HCl pH 8, 150 mM NaCl, 10% glycerol, 1 mM DTT, 0.5 ug tRNA, 1 ug BSA, <2 nM RNA, 30 min on ice, native 0.5x TBE gel at 4 C; conditions: protein: recombinant; tags: His6-MBP removed by TEV; glycine linker remnant; label: 5'-32P
[3] = target: T1, LARP1 DM15 region; assay: EMSA; EMSA: 20 mM Tris-HCl pH 8, 150 mM NaCl, 10% glycerol, 1 mM DTT, 0.5 ug tRNA, 1 ug BSA, <2 nM RNA, 30 min on ice, native 0.5x TBE gel at 4 C; conditions: protein: recombinant; tags: His6-MBP removed by TEV; glycine linker remnant; label: 5'-32P
[4] = target: T1, LARP1 DM15 region; assay: EMSA; two concentration-dependent complexes; EMSA: 20 mM Tris-HCl pH 8, 150 mM NaCl, 10% glycerol, 1 mM DTT, 0.5 ug tRNA, 1 ug BSA, <2 nM RNA, 30 min on ice, native 0.5x TBE gel at 4 C; conditions: protein: recombinant; tags: His6-MBP removed by TEV; glycine linker remnant; label: 5'-32P
[5] = target: T1, LARP1 DM15 region; assay: EMSA; up to 30 uM protein; EMSA: 20 mM Tris-HCl pH 8, 150 mM NaCl, 10% glycerol, 1 mM DTT, 0.5 ug tRNA, 1 ug BSA, <2 nM RNA, 30 min on ice, native 0.5x TBE gel at 4 C; conditions: protein: recombinant; tags: His6-MBP removed by TEV; glycine linker remnant; label: 5'-32P

**Q.** How did the Kd [1] turn out when CCUCUUUUCCGUGGCGCCUC (ssRNA) [RPS6-20mer] was run?
**A.** 776 ± 26 nM

**Q.** Does UUUUUUUUUUUUUUUU (ssRNA) [U16] bind [2]?
**A.** no binding

**Q.** Does CCUCUUUU (ssRNA) [RPS6 first 8 nt] bind [3]?
**A.** no binding

**Q.** Does CCUCUUUUCCG (ssRNA) [RPS6 first 11 nt] bind [3]?
**A.** no binding

**Q.** Does CCUCUUUUCCGUGGCGCCUCGGAGGCGUUCAGCUGCUUCAAG (ssRNA) [RPS6-42mer] bind [4]?
**A.** binds

**Q.** Does GUGGCGCCUCGGAGGCGUUCAGCUGCUUCAAG (ssRNA) [RPS6 deltaTOP] bind [5]?
**A.** no binding

**Q.** Does CCCCUUCUCCCCGGCGGUUA (ssRNA) [PABPC1 5'TOP 20mer] bind [3]?
**A.** no binding

**Q.** Does CACUUCUGCCGCCCCU (ssRNA) [RPL13A 5'TOP 16mer] bind [3]?
**A.** no binding

**Q.** Does AAAAAAAAAAAAAAAA (ssRNA) [A16] bind [2]?
**A.** no binding
